The subject of one data set is SF-767 cells. The data set can be described thus: Cell killing by MTT assay, SF-767 cells. The data set is classed as cell-based, human. Particulars: concentrations up to 10 μM. The method, then:
(§1) sLDL-PO was added to HeLa cells as shown in FIG. 16 and to SF-767 glioblastoma multiforme tumor cells (shown in FIG. 17) at concentrations between 0.05 and 50 μM and cell killing was determined by the MTT assay.
Cells were grown as in Example 3.
Background: Tetrazolium assays rely on reduction of a dye to a coloured formazan, in cell work by metabolically active cells.

For a further data set, the system named is HeLa cells. Description: Cell killing by MTT assay, HeLa cells. Particulars: concentrations up to 50 μM. The data set is classed as cell-based, human. On the procedure:
as §1

A short description of data set [1]: Density distribution of lipidated 18-A chimera by sequential ultracentrifugation. The format is physicochemical. The method, then: Studies were carried out to determine (1) whether the synthetic LDL represent a single population of particles and (2) whether the LDLR binding domain remains accessible after the peptide is associated with the lipid. To determine what types of synthetic LDL particles were generated, the lipidated 18-A chimera was subjected to sequential ultracentrifugation at density (d) 1.063 g/ml to isolate particles equivalent to, or less dense than, native LDL. Subsequently the solution was adjusted to d 1.21 g/ml to isolate particles in the d 1.063-1.21 g/ml range and those in the d>1.21 g/ml range. The latter particles are considered lipid-poor complexes while the d 1.063-1.21 particles are in the size and density range of high density lipoproteins (HDL). […] This was an unexpected finding but is very encouraging since smaller sized complexes will be better able to diffuse through the tumor mass than larger particles. The formation of small high density complexes is reproducible since it occurred with two separate batches of synthetic 18-A chimera complexes.
To determine the distribution of lipid complexes in various density classes, sequential ultracentrifugation techniques were employed (Lindgren, F. T. et al., In Blood Lipids and Lipoproteins: Quantification, Composition and Metabolism (Nelson, G. J., ed.) pp. 181-274, John Wiley, New York (1972)); this preparative procedure is routinely used in our laboratory and is the classical method for isolation of LDL and other lipoproteins. The first centrifugation was performed at d 1.006 g/ml to isolate large lipid complexes with little peptide; the second spin was done at 1.006-1.063 g/ml to isolate particles in the LDL.size and density range; the third spin at d 1.063-1.21 g/ml isolates particles in the HDL size and density range. The d>1.21 g/ml fraction was isolated to assess how much of the peptide is in the lipid-poor form. All ultracentrifugal isolations use the Beckman TL100 ultracentrifuge for rapid isolations (all fractions can be obtained within 24 hr). […]

Data set [2] in a line: Phospholipid binding of peptides, PC-cholate micelles, cholate dialysis. The data set is classed as physicochemical. Particulars: overnight incubation, dialysis (cutoff 10,000 MW). On the procedure: The ability of the peptides to bind phospholipids was tested first. Phospholipid binding was used as a rapid screen for a peptide's ability to bind to the surface of a synthetic LDL-like nanoparticle. To make phospholipid complexes with peptides, egg yolk phosphatidylcholine (PC) and the cholate dialysis method were used similarly to what was previously employed to make synthetic nascent HDL particles (Segrest, J. P. et al., J. Lipid Res 33:141-166 (1992)). The PC-cholate micelles were incubated with the peptide overnight and then extensively dialyzed (dialysis membrane cutoff, 10,000 MW) to remove cholate and unbound peptide. The percent bound peptide, i.e., peptide that remains associated with the lipid micelles, was determined for each peptide and was 8%, 15% and 33%, for B-peptide, 11-A chimera and 18-A chimera, respectively. The B-peptide had poor lipid binding ability while the 11-mer peptide has low lipid binding compared to the 18-A chimera.

The nature of data set [3]: Peptide association with lipid microemulsion after dialysis. The format is physicochemical. The settings on record: 1.27 mg/ml peptide; PL:TO:CO 3:2:1; after extensive dialysis against Tris-saline buffer. The method, then: The 18-A chimera was utilized for making core-containing synthetic LDL. The procedure reported by Baille et al. (Baillie, G. et al., J Lipid Res 43:69-73 (2002)) was used with modifications. Microemulsions were formed using egg yolk phospholipid (PL), triolein (TO) and cholesteryl olein (CO) (mole ratio of 3:2:1) and 20 μM butylhydroxytoluene (BHT); the microemulsions were extruded through an Avanti miniextruder first using 100 nm polycarbonate filters followed by 30 nm polycarbonate filters. The lipid emulsions were incubated with 1.27 mg/ml 18-A chimera and lipid association determined after extensive dialysis against Tris-saline buffer to remove uncomplexed peptide. Approximately 85% of the added synthetic peptide remained associated with the lipid emulsions.
Characterization: Composition of particles was determined using the Markwell modification of the Lowry protein assay and enzymatic colorimetric assays for PL, TO and CO (Wako Kits). Size was determined by column chromatography using a Superose 6 fast protein liquid chromatography (FPLC) column. Samples were run at a flow rate of 0.5 mL/min and absorbance read at 280 nm. Referring now to FIG. 4, the composition of the synthetic LDL was characterized as 32% peptide, 68% lipid. 82%±9% of peptide (n=11) remained bound after dialysis. […]

Consider `CCCCCCCC/C=C\CCCCCCCC(=O)O[C@@H](C(=O)O[C@H]1C[C@@]2(O)[C@@H](OC(=O)c3ccccc3)[C@@H]3[C@]4(OC(C)=O)CO[C@@H]4C[C@H](O)[C@@]3(C)C(=O)[C@H](OC(C)=O)C(=C1C)C2(C)C)[C@@H](NC(=O)c1ccccc1)c1ccccc1` [Paclitaxel oleate], for which the SF-767 cell killing entry in the data set on SF-767 cells was “ineffective”. Also, the HeLa cell killing entry in the data set on HeLa cells is “ineffective”. In addition, the “initial PO added remained bound to the microemulsion after processing” value (PC:TO:CO:PO 3:2:1:0.5, centrifuged and dialyzed) is 48±3%. Moreover, the “increase in incorporation into microemulsion as compared to paclitaxel” value (equimolar amounts added to initial lipid mixture (FIG. 14A)) was 4-5 fold. Moreover, the “initial PO concentration at which incorporation appears to saturate” value (varying PO in the initial lipid mixture (FIG. 13)) is reported as “around 0.33 mg/mL”.
For the molecule “DWLKAFYDKVAEKLKEAFRLTRKRGLKLA [18-A chimera]”, the “density distribution (percent) of 18-A chimera” value in data set [1] (d 1.063-1.21 g/ml (size and density range of HDL, small lipid particles)) was found to be 58%; in data set [1] (d < 1.063 g/ml) it was 13%; in data set [1] (d > 1.21 g/ml (lipid-poor)), 29%. Moreover, in data set [2], the “percent bound peptide (peptide that remains associated with the lipid micelles)” value came out at 33%. Besides, the “added synthetic peptide remaining associated with the lipid emulsions” value in data set [3] is “Approximately 85%”.
In the case of PALEDLRQGLLPRLTRKRGLKL [11-A chimera], the “percent bound peptide (peptide that remains associated with the lipid micelles)” value in data set [2] is 15%.
The same measure, in the same setting: as for “YKLEGTTRLTRKRGLKLATALS [B-peptide, reference compound]”, the figure is 8%.

The values above are taken from patent publication US8252338B2, “Synthetic LDL as targeted drug delivery vehicle” (The Regents of the University of California, priority 2005, dated 2012).
